{"source": "patent US20200325490A1", "about": "(AARHUS UNIVERSITET, published 2020)", "biological_target": "the molecule itself", "test": "Western blot with anti-His6 antibody: band of about 92 kDa against a theoretical mass of 47 kDa"}
{"protein": "HvNEP-1 (Hordeum vulgare nepenthesin-1-type aspartic endoprotease), ΔHvNEP-1 with C-terminal His6 tag, expressed in Pichia pastoris KM71H (enzyme, also called HvNEP-1 protease; truncated HvNEP-1) DADTPKVAMASSGAGSSFRLAAHHDHALSRSDDGFLHVQSRLDNLLPSEANVTTLRPPVASPLDMAFSVVVGLGSGKGRHDYNLKLDASGSLTWVQCKPCNPKQPQRGPLFDPKASSTFQQVAGTSQICHPPYPMEPAGQQCAFHLSGMGGMSVHGYVAMENLTMGPEAMKEFVFGCSHSTGHFNSHGTFAGVAAMGKMPTSLVMQVAARGQTRFSYCLFSGGASRHGFLRFGADVPSRSGLRTTKILPALDAHESQYYVSLVGISLDAKRLTGVRPEMFARQRGGEGGCVVDPGTPLTVLVREAYRVVEDAVWSDLRRNKAERVQREGYGLCVRKTAEIKRHLQSLSLHFAEETARLVVKPEQLFVAVESRLHGAALCLAMRPGERTVIGALQQVDTRFVYDLKDAKLSFASEPCSQDTAGVDHHHHHH", "values": [{"measurement": "binding result", "result": "binds"}]}
